Data on one protein can be found in publication PMC3457645.

Common to all, as to assay: purified protein
Substrate in series [1]: CCCCCC(O)/C=C/C=O
The note with it: NAD+.

Substrate in series [2]: CC(=O)Oc1ccc([N+](=O)[O-])cc1
Type of series: biochemical, Homo sapiens.

Substrate in series [3]: CC=O
Type of series: biochemical, Homo sapiens. The note with it: NAD+.

Substrate in series [4]: CCCCCC=O
It is filed as biochemical, Homo sapiens. The note with it: NAD+.

Substrate in series [5]: CCCCCCCC=O
Type of series: biochemical, Homo sapiens. The following applies: NAD+.

Substrate in series [6]: O=Cc1ccccc1
It is filed as biochemical, Homo sapiens. The following applies: NAD+.

B1: ALDH3B1 (Homo sapiens) (protein)
chain: MDPLGDTLRRLREAFHAGRTRPAEFRAAQLQGLGRFLQENKQLLHDALAQDLHKSAFESEVSEVAISQGEVTLALRNLRAWMKDERVPKNLATQLDSAFIRKEPFGLVLIIAPWNYPLNLTLVPLVGALAAGNCVVLKPSEISKNVEKILAEVLPQYVDQSCFAVVLGGPQETGQLLEHRFDYIFFTGSPRVGKIVMTAAAKHLTPVTLELGGKNPCYVDDNCDPQTVANRVAWFRYFNAGQTCVAPDYVLCSPEMQERLLPALQSTITRFYGDDPQSSPNLGRIINQKQFQRLRALLGCGRVAIGGQSDESDRYIAPTVLVDVQEMEPVMQEEIFGPILPIVNVQSLDEAIEFINRREKPLALYAFSNSSQVVKRVLTQTSSGGFCGNDGFMHMTLASLPFGGVGASGMGRYHGKFSFDTFSHHRACLLRSPGMEKLNALRYPPQSPRRLRMLLVAMEAQGCSC
As to B1, the Km (commonly the substrate concentration at which the rate is half of its maximum) stood at 52 ± 5 µM in series [1]; 3600 ± 250 µM in series [2]; 23300 ± 1500 µM in series [3]; 62 ± 8 µM in series [4]; 8 ± 2 µM in series [5]; 46 ± 11 µM in series [6]. Further, the maximum rate (Vmax) (as a rule, the top rate of the reaction or transport when substrate is in excess) in series [1] came out at 0.653 µmol/min/mg; in series [2], 1.32 µmol/min/mg; in series [3] it was 0.315 µmol/min/mg; in series [4], 0.679 µmol/min/mg; in series [5], 1.24 µmol/min/mg; in series [6], 0.129 µmol/min/mg.
